Patent US10947270B2, “Targeted prodrug cytosine deaminase fusion carrier and application thereof” (National Yang-Ming University, priority 2015, dated 2021)

Test system: HUVEC and U87MG cells
Assay: Fluorescence microscopy of binding and distribution of yCD series fusion proteins
Type: cell-based, human
Conditions: 500 nM protein, 4° C., 2 hours
Description: (FIG. 8A) or 37° C. […] (FIG. 8C) or 37° C. (FIG. 8D) for 2 hours, and then the fluorescent staining is performed for the cells, and the confocal fluorescence microscope is used to observe the distribution of protein in cells. (Green signal: β3 integrin; red signal: anti-His6-tag (also represents the signal of the fusion protein); blue signal: Hoechst 33342 cell nuclear stain) (Calibration scale: 20 μm).
HUVEC and U87MG cells are co-cultured with culture medium containing 500 nM RGD4C-yCD and RGD4C-yCD/UPRT protein at 4° C. and 37° C. for 2 hours, then the cells are stained with fluorescence, and the distribution in the cell is observed by conjugated fluorescence microscopy.

B1: yCD: yeast cytosine deaminase (yCD) (SEQ ID NO: 1), recombinant protein without target molecule (protein)
chain: MVVTGGMASKWDQKGMDIAYEEAALGYKEGGVPIGGCLINNKDGSVLGRGHNMRFQKGSATLHGEISTLENCGRLEGKVYKDTTLYTTLSPCDMCTGAIIMYGIPRCVVGENVNFKSKGEKYLQTRGHEVVVVDDERCKKIMKQFIDERPQDWFEDIGELEHHHHHH
modifications: yCD
binding and distribution in cells: can not be effectively bound
